Laboratory results reported in US20220119490A1 (Genentech, published 2022).
Numbering of substitutions follows the chain as printed.

How the values were obtained:
[1] = molecular target: T1, PTPRD S431L variant extracellular domain (human, UniProt P23468 21-1265); assay: extracellular interaction screen: pentameric PTPRD variant ECD on ECD-Fc prey (FIG. 5L)
T1 construct: extracellular domain; also called FN2 mutant
T1 sequence (looked up): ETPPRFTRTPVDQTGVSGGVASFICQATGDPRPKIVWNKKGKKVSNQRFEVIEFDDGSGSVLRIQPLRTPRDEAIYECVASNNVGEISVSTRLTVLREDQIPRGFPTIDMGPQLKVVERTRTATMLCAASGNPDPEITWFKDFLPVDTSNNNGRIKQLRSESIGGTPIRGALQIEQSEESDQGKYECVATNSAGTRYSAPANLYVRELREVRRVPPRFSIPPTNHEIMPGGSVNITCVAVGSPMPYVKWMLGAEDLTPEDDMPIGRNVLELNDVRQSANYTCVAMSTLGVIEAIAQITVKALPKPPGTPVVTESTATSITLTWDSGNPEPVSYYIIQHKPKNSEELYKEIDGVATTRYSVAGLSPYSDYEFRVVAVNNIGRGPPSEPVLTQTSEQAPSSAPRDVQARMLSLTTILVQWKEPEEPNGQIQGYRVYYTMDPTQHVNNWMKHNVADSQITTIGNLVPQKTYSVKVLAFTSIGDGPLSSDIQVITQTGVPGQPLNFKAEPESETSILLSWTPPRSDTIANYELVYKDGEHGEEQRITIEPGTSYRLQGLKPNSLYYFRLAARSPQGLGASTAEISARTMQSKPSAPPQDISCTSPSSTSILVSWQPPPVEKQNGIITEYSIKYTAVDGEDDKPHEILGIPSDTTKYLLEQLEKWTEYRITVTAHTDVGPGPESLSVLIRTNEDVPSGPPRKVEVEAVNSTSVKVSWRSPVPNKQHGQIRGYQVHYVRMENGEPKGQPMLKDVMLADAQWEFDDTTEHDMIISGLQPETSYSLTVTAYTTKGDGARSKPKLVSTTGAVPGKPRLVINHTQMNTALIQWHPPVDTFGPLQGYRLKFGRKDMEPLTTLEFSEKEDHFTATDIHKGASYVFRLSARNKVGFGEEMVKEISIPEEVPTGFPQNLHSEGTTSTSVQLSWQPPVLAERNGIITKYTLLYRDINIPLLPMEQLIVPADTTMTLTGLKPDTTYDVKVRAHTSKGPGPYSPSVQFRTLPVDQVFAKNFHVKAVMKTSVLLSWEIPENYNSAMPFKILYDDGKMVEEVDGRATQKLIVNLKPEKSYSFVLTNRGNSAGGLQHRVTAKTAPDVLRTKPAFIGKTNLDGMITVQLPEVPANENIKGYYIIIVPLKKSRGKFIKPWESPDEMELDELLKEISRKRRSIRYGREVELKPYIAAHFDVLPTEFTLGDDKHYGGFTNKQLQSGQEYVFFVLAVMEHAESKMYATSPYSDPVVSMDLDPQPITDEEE

[2] = molecular target: T2, PTPRD R232C R233C variant extracellular domain (human, UniProt P23468 21-1265); assay: as above
T2 construct: extracellular domain; also called R232C/R233C double mutant; IG2 mutant
T2 sequence (looked up): T1 sequence (looked up) with R212C, R213C, L411S

- binding result [1]: no binding
- binding result [2]: no binding
B1: LRRC4B extracellular domain (receptor, human, UniProt Q9NT99 36-576, looked up)
chain: AGGGGVAVTSAAGGGSPPATSCPVACSCSNQASRVICTRRDLAEVPASIPVNTRYLNLQENGIQVIRTDTFKHLRHLEILQLSKNLVRKIEVGAFNGLPSLNTLELFDNRLTTVPTQAFEYLSKLRELWLRNNPIESIPSYAFNRVPSLRRLDLGELKRLEYISEAAFEGLVNLRYLNLGMCNLKDIPNLTALVRLEELELSGNRLDLIRPGSFQGLTSLRKLWLMHAQVATIERNAFDDLKSLEELNLSHNNLMSLPHDLFTPLHRLERVHLNHNPWHCNCDVLWLSWWLKETVPSNTTCCARCHAPAGLKGRYIGELDQSHFTCYAPVIVEPPTDLNVTEGMAAELKCRTGTSMTSVNWLTPNGTLMTHGSYRVRISVLHDGTLNFTNVTVQDTGQYTCMVTNSAGNTTASATLNVSAVDPVAAGGTGSGGGGPGGSGGVGGGSGGYTYFTTVTVETLETQPGEEALQPRGTEKEPPGPTTDGVWGGGRPGDAAGPASSSTTAPAPRSSRPTEKAFTVPITDVTENALKDLDDVMKTTK
notes: extracellular domain; ECD-Fc prey; also called NGL-3; netrin-G ligand-3
